Data reported in patent publication US20260078416A1, “ORTHOGONAL METABOLIC FRAMEWORK FOR ONE-CARBON UTILIZATION” (Mojia Biotech Pte. Ltd., priority 2021, published 2026).

Test system: formaldehyde
Experiment: Cell-free prototyping of the α-reduction FORCE pathway with E. coli cell extracts
Assay type: biochemical
Settings: 50 mM formaldehyde
Text: A cell-free metabolic engineering approach was used to further prototype the FORCE pathways for product synthesis. […] As shown in FIG. 2 (in the formyl-CoA elongation panel), outside of the direct generation of 2-hydroxycarboxylates (e.g. glycolate) via thioester cleavage of the 2-hydroxyacyl-CoA generated by HACL, other C2 products, (including the aldose or aldehyde elongation pathways) require reduction of this 2-hydroxyacyl-CoA (glycolyl-CoA in the case of formaldehyde and formyl-CoA ligation). Listeria monocytogenes ACR (LmACR) are also able to act upon glycolaldehyde. […] With the inclusion of the previously identified HACL from Rhodospirillales bacterium URHD0017 (RuHACL), glycolate was observed.
Upon further addition of E. coli cell extract expressing diol dehydratase (DDR) from Klebsiella oxytoca, along with coenzyme B12, ethanol was detected (1.90±0.03 mM at one hour: FIG. 5b), likely due to the reduction of acetaldehyde by endogenous oxidoreductases, along with a corresponding decrease in ethylene glycol. […]
Enzyme expression and cell extract preparation was performed as described previously. […] Samples were centrifuged at 20817×g for 15 minutes and the supernatant analyzed by HPLC as described previously.

B1: E. coli FucO: E. coli 1,2-diol oxidoreductase, added as cell extract (protein, UniProt P0A9S1 1-382, looked up)
Lactaldehyde reductase: MANRMILNETAWFGRGAVGALTDEVKRRGYQKALIVTDKTLVQCGVVAKVTDKMDAAGLAWAIYDGVVPNPTITVVKEGLGVFQNSGADYLIAIGGGSPQDTCKAIGIISNNPEFADVRSLEGLSPTNKPSVPILAIPTTAGTAAEVTINYVITDEEKRRKFVCVDPHDIPQVAFIDADMMDGMPPALKAATGVDALTHAIEGYITRGAWALTDALHIKAIEIIAGALRGSVAGDKDAGEEMALGQYVAGMGFSNVGLGLVHGMAHPLGAFYNTPHGVANAILLPHVMRYNADFTGEKYRDIARVMGVKVEGMSLEEARNAAVEAVFALNRDVGIPPHLRDVGVRKEDIPALAQAALDDVCTGGNPREATLEDIVELYHTAW
modifications: added as cell extract
notes: E. coli 1,2-diol oxidoreductase, added as cell extract
ethylene glycol synthesis (extract added to LmACR and RuHACL extracts): 2.73 ± 0.03 mM
increase in ethylene glycol (vs without the added extract): 2 fold
